Measurements as given in publication PMC8217511 (2021).
Read-outs that look alike come from different tables or passages of the source.

B1: monobody MB_(CRS6)-15, purified (designed binder)
chain: GSVSSVPTKLEVVAATPTSLLISWDAPAVTVYLYVITYGETGGNSPVQEFEVPGSKSTATISGLKPGVDYTITVYASSKHSSRYASPISINYRT
B2: CrSAS-6_6HR, N-terminal domain and six heptad repeats of the coiled-coil of Chlamydomonas reinhardtii SAS-6 (domain or fragment)
chain: MPLLLDDGDPKAQTGFDLSTATTLFWRPVPVHVKQQDREDVLEELTFRILTGVAKQNHNLRILRIHISSDSDLFFLHTLEVSEEDFQSLKNDQGILVDFASFPGKIISLLEKCILAQPGDSPRFQAVLTIRGGESVFKIVEINDFKQLPHITLAFRPGNDSVVKQFLAFRLSEVKGTCHDLSDDLSRTRDDRDSMVAQLAQCRQQLAQLREQYDKHLLEVQAQAKT

Experiments:
Assay in all cases: ITC
[1] = target: B2
MBCRS6-12 = target: MBCRS6-12
MBCRS6-5 [2] = target: MBCRS6-5
MBCRS6-5 [3] = target: MBCRS6-5; remark: listed apart in the source
MBCRS6-6 = target: MBCRS6-6
MBCRS6-3 = target: MBCRS6-3
MBCRS6-4 = target: MBCRS6-4
MBCRS6-2 = target: MBCRS6-2

| Binder | Kd [1] | Kd (MBCRS6-12) | Kd (MBCRS6-5 [2]) | Kd (MBCRS6-5 [3]) | Kd (MBCRS6-6) | Kd (MBCRS6-3) | Kd (MBCRS6-4) | Kd (MBCRS6-2) |
| --- | --- | --- | --- | --- | --- | --- | --- | --- |
| B1 | 468 nM | – | – | – | – | – | – | – |
| B2 | – | 193 nM | 31.1 nM | 31 nM | 570 nM | 369 nM | 316 nM | 88700 nM |
